Experimental findings from patent US20260258155A1 (TRIVENI BIO, published 2026) are described below.

Assay [1] has as its target T1, human KLK7 (hKLK7), active form (human, UniProt P49862 30-253). Kind of assay: cell-based or functional assay.
Assay [2] deals with T2, mouse KLK7 (mKLK7) (mouse, UniProt Q91VE3 26-249). Kind of assay: cell-based or functional assay.
The target in assay [3] is T1, human KLK7 (hKLK7), active form. The assay is described as follows: Biacore SPR, antibody captured on Protein A chip, single-cycle kinetics, 25 C.
Description: (§1) All screening assays were performed at 25 C. The running buffer used was 20 mM HEPES, 300 mM NaCl, 0.01% Tween-20, pH 7.5. Antibodies (1 ug/mL) were captured on Fc2-4 of a Series S ProteinA Sensor Chip (Cytiva) flowing at 10 ul/mL for 30 s. Kinetics measurements were made in single-cycle kinetics mode with a series of 4-5 concentrations with top concentration of 25-100 nM and serial dilution 4-fold. Contact time was typically 300 s and dissociation time ranged from 1800-3600 s. Flow rate of 30 ul/mL was typically used. The sensor chip was regenerated with 10 mM glycine, pH 1.5 with a contact time of 30 s flowing at 50 ul/mL.
Assay [4] has as its target T2, mouse KLK7 (mKLK7). The description is as above.
Description: as §1

T2 sequence (Q91VE3 26-249 limits assumed): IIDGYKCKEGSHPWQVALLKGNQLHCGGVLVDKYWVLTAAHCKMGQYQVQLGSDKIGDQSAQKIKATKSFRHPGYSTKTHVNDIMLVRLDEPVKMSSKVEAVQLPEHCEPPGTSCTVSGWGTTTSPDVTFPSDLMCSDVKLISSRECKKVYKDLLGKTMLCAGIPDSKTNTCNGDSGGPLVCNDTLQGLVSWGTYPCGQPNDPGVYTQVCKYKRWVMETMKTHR
T1 sequence (P49862 30-253): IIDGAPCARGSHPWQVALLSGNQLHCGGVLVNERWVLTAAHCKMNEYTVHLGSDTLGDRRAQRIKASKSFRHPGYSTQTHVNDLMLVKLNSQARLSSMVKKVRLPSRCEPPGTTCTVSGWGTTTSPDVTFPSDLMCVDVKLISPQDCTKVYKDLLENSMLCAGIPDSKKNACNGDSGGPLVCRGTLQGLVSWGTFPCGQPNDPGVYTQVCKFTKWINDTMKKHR

B1: KLK7-L1-Ab8 (antibody, V domains shown)
VH: QVQLVQSGAEVKKPGASVKVSCKASGYTFTSEGIHWVRQAPGQGLEWMGSISASSGDTNYAQKLQGRVTMTTDTSTSTAYMELRSLRSDDTAVYYCARSAGYGARHWYFDLWGQGTMVTVSS
VL: DIQMTQSPSSLSASVGDRVTITCRASQSISSYLNWYQQKPGKAPKLLIYGASSLQSGVPSRFSGSGSGTDFTLTISSLQPEDFATYYCDQWYSTPPITFGGGTKVEIK
Take B1: in assay [1], the “hKLK7 IC50 (protease inhibition)” value was determined as 0.767 nM and the “hKLK7 IC90 (protease inhibition)” value turned out to be 3.95 nM. Besides, in assay [2], the “mKLK7 IC50 (protease inhibition)” value was found to be 1.1 nM and the “mKLK7 IC90 (protease inhibition)” value came to 5.3 nM. In addition, the affinity in assay [3], expressed as Kd, was 0.01 nM. Also, the Kd (as a rule, the constant that tells how readily two partners part at equilibrium) in assay [4] stood at 0.0569 nM.
